B1: LetB L243N (periplasmic domain) (domain or fragment, E. coli, UniProt P76272 43-877, looked up)
chain: QDRGNTVTIDFMSADGIVPGRTPVRYQGVEVGTVQDISLSDDLRKIEVKVSIKSDMKDALREETQFWLVTPKASLAGVSGLDALVGGNYIGMMPGKGKEQDHFVALDTQPKYRLDNGDLMIHLQAPDLGSLNSGSLVYFRKIPVGKVYDYAINPNKQGVVIDVLIERRFTDLVKKGSRFWNVSGVDANVSISGAKVKLESNAALVNGAIAFDSPEESKPAEAEDTFGLYEDLAHSQRGVIIKLELPSGAGLTADSTPLMYQGLEVGQLTKLDLNPGGKVTGEMTVDPSVVTLLRENTRIELRNPKLSLSDANLSALLTGKTFELVPGDGEPRKEFVVVPGEKALLHEPDVLTLTLTAPESYGIDAGQPLILHGVQVGQVIDRKLTSKGVTFTVAIEPQHRELVKGDSKFVVNSRVDVKVGLDGVEFLGASASEWINGGIRILPGDKGEMKASYPLYANLEKALENSLSDLPTTTVSLSAETLPDVQAGSVVLYRKFEVGEVITVRPRANAFDIDLHIKPEYRNLLTSNSVFWAEGGAKVQLNGSGLTVQASPLSRALKGAISFDNLSGASASQRKGDKRILYASETAARAVGGQITLHAFDAGKLAVGMPIRYLGIDIGQIQTLDLITARNEVQAKAVLYPEYVQTFARGGTRFSVVTPQISAAGVEHLDTILQPYINVEPGRGNPRRDFELQEATITDSRYLDGLSIIVEAPEAGSLGIGTPVLFRGLEVGTVTGMTLGTLSDRVMIAMRISKRYQHLVRNNSVFWLASGYSLDFGLTGGVVKTGTFNQFIRGGIAFATPPGTPLAPKAQEGKHFLLQESEPKEWREWGTALPK
B2: LetB L358N (periplasmic domain) (domain or fragment, E. coli, UniProt P76272 43-877, looked up)
chain: QDRGNTVTIDFMSADGIVPGRTPVRYQGVEVGTVQDISLSDDLRKIEVKVSIKSDMKDALREETQFWLVTPKASLAGVSGLDALVGGNYIGMMPGKGKEQDHFVALDTQPKYRLDNGDLMIHLQAPDLGSLNSGSLVYFRKIPVGKVYDYAINPNKQGVVIDVLIERRFTDLVKKGSRFWNVSGVDANVSISGAKVKLESLAALVNGAIAFDSPEESKPAEAEDTFGLYEDLAHSQRGVIIKLELPSGAGLTADSTPLMYQGLEVGQLTKLDLNPGGKVTGEMTVDPSVVTLLRENTRIELRNPKLSLSDANLSANLTGKTFELVPGDGEPRKEFVVVPGEKALLHEPDVLTLTLTAPESYGIDAGQPLILHGVQVGQVIDRKLTSKGVTFTVAIEPQHRELVKGDSKFVVNSRVDVKVGLDGVEFLGASASEWINGGIRILPGDKGEMKASYPLYANLEKALENSLSDLPTTTVSLSAETLPDVQAGSVVLYRKFEVGEVITVRPRANAFDIDLHIKPEYRNLLTSNSVFWAEGGAKVQLNGSGLTVQASPLSRALKGAISFDNLSGASASQRKGDKRILYASETAARAVGGQITLHAFDAGKLAVGMPIRYLGIDIGQIQTLDLITARNEVQAKAVLYPEYVQTFARGGTRFSVVTPQISAAGVEHLDTILQPYINVEPGRGNPRRDFELQEATITDSRYLDGLSIIVEAPEAGSLGIGTPVLFRGLEVGTVTGMTLGTLSDRVMIAMRISKRYQHLVRNNSVFWLASGYSLDFGLTGGVVKTGTFNQFIRGGIAFATPPGTPLAPKAQEGKHFLLQESEPKEWREWGTALPK
B3: LetB L355N (periplasmic domain) (domain or fragment, E. coli, UniProt P76272 43-877, looked up)
chain: QDRGNTVTIDFMSADGIVPGRTPVRYQGVEVGTVQDISLSDDLRKIEVKVSIKSDMKDALREETQFWLVTPKASLAGVSGLDALVGGNYIGMMPGKGKEQDHFVALDTQPKYRLDNGDLMIHLQAPDLGSLNSGSLVYFRKIPVGKVYDYAINPNKQGVVIDVLIERRFTDLVKKGSRFWNVSGVDANVSISGAKVKLESLAALVNGAIAFDSPEESKPAEAEDTFGLYEDLAHSQRGVIIKLELPSGAGLTADSTPLMYQGLEVGQLTKLDLNPGGKVTGEMTVDPSVVTLLRENTRIELRNPKLSLSDANNSALLTGKTFELVPGDGEPRKEFVVVPGEKALLHEPDVLTLTLTAPESYGIDAGQPLILHGVQVGQVIDRKLTSKGVTFTVAIEPQHRELVKGDSKFVVNSRVDVKVGLDGVEFLGASASEWINGGIRILPGDKGEMKASYPLYANLEKALENSLSDLPTTTVSLSAETLPDVQAGSVVLYRKFEVGEVITVRPRANAFDIDLHIKPEYRNLLTSNSVFWAEGGAKVQLNGSGLTVQASPLSRALKGAISFDNLSGASASQRKGDKRILYASETAARAVGGQITLHAFDAGKLAVGMPIRYLGIDIGQIQTLDLITARNEVQAKAVLYPEYVQTFARGGTRFSVVTPQISAAGVEHLDTILQPYINVEPGRGNPRRDFELQEATITDSRYLDGLSIIVEAPEAGSLGIGTPVLFRGLEVGTVTGMTLGTLSDRVMIAMRISKRYQHLVRNNSVFWLASGYSLDFGLTGGVVKTGTFNQFIRGGIAFATPPGTPLAPKAQEGKHFLLQESEPKEWREWGTALPK
B4: LetB V247N (periplasmic domain) (domain or fragment, E. coli, UniProt P76272 43-877, looked up)
chain: QDRGNTVTIDFMSADGIVPGRTPVRYQGVEVGTVQDISLSDDLRKIEVKVSIKSDMKDALREETQFWLVTPKASLAGVSGLDALVGGNYIGMMPGKGKEQDHFVALDTQPKYRLDNGDLMIHLQAPDLGSLNSGSLVYFRKIPVGKVYDYAINPNKQGVVIDVLIERRFTDLVKKGSRFWNVSGVDANVSISGAKVKLESLAALNNGAIAFDSPEESKPAEAEDTFGLYEDLAHSQRGVIIKLELPSGAGLTADSTPLMYQGLEVGQLTKLDLNPGGKVTGEMTVDPSVVTLLRENTRIELRNPKLSLSDANLSALLTGKTFELVPGDGEPRKEFVVVPGEKALLHEPDVLTLTLTAPESYGIDAGQPLILHGVQVGQVIDRKLTSKGVTFTVAIEPQHRELVKGDSKFVVNSRVDVKVGLDGVEFLGASASEWINGGIRILPGDKGEMKASYPLYANLEKALENSLSDLPTTTVSLSAETLPDVQAGSVVLYRKFEVGEVITVRPRANAFDIDLHIKPEYRNLLTSNSVFWAEGGAKVQLNGSGLTVQASPLSRALKGAISFDNLSGASASQRKGDKRILYASETAARAVGGQITLHAFDAGKLAVGMPIRYLGIDIGQIQTLDLITARNEVQAKAVLYPEYVQTFARGGTRFSVVTPQISAAGVEHLDTILQPYINVEPGRGNPRRDFELQEATITDSRYLDGLSIIVEAPEAGSLGIGTPVLFRGLEVGTVTGMTLGTLSDRVMIAMRISKRYQHLVRNNSVFWLASGYSLDFGLTGGVVKTGTFNQFIRGGIAFATPPGTPLAPKAQEGKHFLLQESEPKEWREWGTALPK
B5: LetB L359N (periplasmic domain) (domain or fragment, E. coli, UniProt P76272 43-877, looked up)
chain: QDRGNTVTIDFMSADGIVPGRTPVRYQGVEVGTVQDISLSDDLRKIEVKVSIKSDMKDALREETQFWLVTPKASLAGVSGLDALVGGNYIGMMPGKGKEQDHFVALDTQPKYRLDNGDLMIHLQAPDLGSLNSGSLVYFRKIPVGKVYDYAINPNKQGVVIDVLIERRFTDLVKKGSRFWNVSGVDANVSISGAKVKLESLAALVNGAIAFDSPEESKPAEAEDTFGLYEDLAHSQRGVIIKLELPSGAGLTADSTPLMYQGLEVGQLTKLDLNPGGKVTGEMTVDPSVVTLLRENTRIELRNPKLSLSDANLSALNTGKTFELVPGDGEPRKEFVVVPGEKALLHEPDVLTLTLTAPESYGIDAGQPLILHGVQVGQVIDRKLTSKGVTFTVAIEPQHRELVKGDSKFVVNSRVDVKVGLDGVEFLGASASEWINGGIRILPGDKGEMKASYPLYANLEKALENSLSDLPTTTVSLSAETLPDVQAGSVVLYRKFEVGEVITVRPRANAFDIDLHIKPEYRNLLTSNSVFWAEGGAKVQLNGSGLTVQASPLSRALKGAISFDNLSGASASQRKGDKRILYASETAARAVGGQITLHAFDAGKLAVGMPIRYLGIDIGQIQTLDLITARNEVQAKAVLYPEYVQTFARGGTRFSVVTPQISAAGVEHLDTILQPYINVEPGRGNPRRDFELQEATITDSRYLDGLSIIVEAPEAGSLGIGTPVLFRGLEVGTVTGMTLGTLSDRVMIAMRISKRYQHLVRNNSVFWLASGYSLDFGLTGGVVKTGTFNQFIRGGIAFATPPGTPLAPKAQEGKHFLLQESEPKEWREWGTALPK
B6: LetB L246N (periplasmic domain) (domain or fragment, E. coli, UniProt P76272 43-877, looked up)
chain: QDRGNTVTIDFMSADGIVPGRTPVRYQGVEVGTVQDISLSDDLRKIEVKVSIKSDMKDALREETQFWLVTPKASLAGVSGLDALVGGNYIGMMPGKGKEQDHFVALDTQPKYRLDNGDLMIHLQAPDLGSLNSGSLVYFRKIPVGKVYDYAINPNKQGVVIDVLIERRFTDLVKKGSRFWNVSGVDANVSISGAKVKLESLAANVNGAIAFDSPEESKPAEAEDTFGLYEDLAHSQRGVIIKLELPSGAGLTADSTPLMYQGLEVGQLTKLDLNPGGKVTGEMTVDPSVVTLLRENTRIELRNPKLSLSDANLSALLTGKTFELVPGDGEPRKEFVVVPGEKALLHEPDVLTLTLTAPESYGIDAGQPLILHGVQVGQVIDRKLTSKGVTFTVAIEPQHRELVKGDSKFVVNSRVDVKVGLDGVEFLGASASEWINGGIRILPGDKGEMKASYPLYANLEKALENSLSDLPTTTVSLSAETLPDVQAGSVVLYRKFEVGEVITVRPRANAFDIDLHIKPEYRNLLTSNSVFWAEGGAKVQLNGSGLTVQASPLSRALKGAISFDNLSGASASQRKGDKRILYASETAARAVGGQITLHAFDAGKLAVGMPIRYLGIDIGQIQTLDLITARNEVQAKAVLYPEYVQTFARGGTRFSVVTPQISAAGVEHLDTILQPYINVEPGRGNPRRDFELQEATITDSRYLDGLSIIVEAPEAGSLGIGTPVLFRGLEVGTVTGMTLGTLSDRVMIAMRISKRYQHLVRNNSVFWLASGYSLDFGLTGGVVKTGTFNQFIRGGIAFATPPGTPLAPKAQEGKHFLLQESEPKEWREWGTALPK
B7: LetB two-ring truncation mutant (rings 2-6 deleted), TM helix removed (domain or fragment)
chain: QDRGNTVTIDFMSADGIVPGRTPVRYQGVEVGTVQDISLSDDLRKIEVKVSIKSDMKDALREETQFWLVTPKASLAGVSGLDALVGGNYIGMMPGKGKEQDHFVALDTQPKYRLDNGDGLSIIVEAPEAGSLGIGTPVLFRGLEVGTVTGMTLGTLSDRVMIAMRISKRYQHLVRNNSVFWLASGYSLDFGLTGGVVKTGTFNQFIRGGIAFATPPGTPLAPKAQEGKHFLLQESEPKEWREWGTALPK
B8: LetB three-ring truncation mutant (rings 2-5 deleted), TM helix removed (domain or fragment)
chain: QDRGNTVTIDFMSADGIVPGRTPVRYQGVEVGTVQDISLSDDLRKIEVKVSIKSDMKDALREETQFWLVTPKASLAGVSGLDALVGGNYIGMMPGKGKEQDHFVALDTQPKYRLDNGSETAARAVGGQITLHAFDAGKLAVGMPIRYLGIDIGQIQTLDLITARNEVQAKAVLYPEYVQTFARGGTRFSVVTPQISAAGVEHLDTILQPYINVEPGRGNPRRDFELQEATITDSRYLDGLSIIVEAPEAGSLGIGTPVLFRGLEVGTVTGMTLGTLSDRVMIAMRISKRYQHLVRNNSVFWLASGYSLDFGLTGGVVKTGTFNQFIRGGIAFATPPGTPLAPKAQEGKHFLLQESEPKEWREWGTALPK

Biological target: the molecule itself
Assay: negative stain EM

Stoichiometry N, 6:
B1
B2
B3
B4
B5
B6
B7
B8
